Measurements published in patent publication US20130171170A1.

Target: human CD22-beta-ECD-His tagged soluble antigen (human) (UniProt P20273)
Experiment: SPR (BIACORE 3000), antibody coupled to the chip, soluble CD22-beta-ECD-His injected, 25 C

Chain of human CD22-beta-ECD-His tagged soluble antigen (human) (P20273 other isoform, or with tags, fused parts or gaps): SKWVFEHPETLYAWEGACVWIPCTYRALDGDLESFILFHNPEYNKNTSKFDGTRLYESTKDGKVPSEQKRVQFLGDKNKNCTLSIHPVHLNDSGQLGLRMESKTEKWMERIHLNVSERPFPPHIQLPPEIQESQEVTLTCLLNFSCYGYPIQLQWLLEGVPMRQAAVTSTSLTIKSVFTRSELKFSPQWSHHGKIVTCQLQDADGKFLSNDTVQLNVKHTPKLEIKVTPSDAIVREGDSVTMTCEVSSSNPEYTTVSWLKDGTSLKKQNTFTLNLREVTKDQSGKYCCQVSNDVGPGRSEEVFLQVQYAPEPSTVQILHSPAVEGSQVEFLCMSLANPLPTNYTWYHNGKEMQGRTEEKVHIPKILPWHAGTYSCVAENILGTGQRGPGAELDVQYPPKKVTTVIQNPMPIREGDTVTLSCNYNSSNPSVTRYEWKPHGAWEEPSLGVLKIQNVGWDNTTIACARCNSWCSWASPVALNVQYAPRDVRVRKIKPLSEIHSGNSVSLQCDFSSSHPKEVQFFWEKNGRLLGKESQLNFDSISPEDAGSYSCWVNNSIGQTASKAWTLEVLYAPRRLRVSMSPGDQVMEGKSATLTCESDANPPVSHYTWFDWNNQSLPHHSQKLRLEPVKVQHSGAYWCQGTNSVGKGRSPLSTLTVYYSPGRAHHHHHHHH

Kd: 4.2 nM | koff: 0.00014 s⁻¹ | kon: 33000 M⁻¹ s⁻¹
B1: anti-CD22 antibody RFB4 (antibody, from another filing, V domains shown)
VH: EVQLVESGGGLVKPGGSLKLSCAASGFAFSIYDMSWVRQTPEKRLEWVAYISSGGGTTYYPDTVKGRFTISRDNAKNTLYLQMSSLKSEDTAMYYCARHSGYGSSYGVLFAYWGQGTLVTVSA
VL: DIQMTQTTSSLSASLGDRVTISCRASQDISNYLNWYQQKPDGTVKLLIYYTSILHSGVPSRFSGSGSGTDYSLTISNLEQEDFATYFCQQGNTLPWTFGGGTKLEIK
